Reference: patent US8653023

Tested on: protein phosphatase 2A (PP2A), endogenous, in N27 cell lysate

recombinant pure PKCδ
32P-kinase assay: phosphorylation of immunoprecipitated PP2A: PP2A immunoprecipitated from N27 cells was effectively phosphorylated by PKCδ immunoprecipitates as well as by recombinant pure PKCδ
